Measurements taken from the supplement of paper PMC10724198.
± gives the standard deviation of the averaged measurements.

Test system: Saccharomyces cerevisiae
Assay: protein stability index of tFT-peptide fusion (C-terminal peptide) (PSI (0-1 scale)); higher = more stable (slower turnover)
Conditions: genetic background: wild type; temperature: 30 C
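Also: PSI is a weighted mean of sequencing reads over stability bins, variants kept only with over 10 reads, mCherry proximal and sfGFP distal, peptide attached via GGGS linker.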

Sequence | protein stability index
GEGEAVREMRGV | 0.645 ± 0.025
PCPPRSLPPPTS | 0.835 ± 0.16
CSNKIILMTRNN | 0.564 ± 0.041
PMVLLDTIQRHT | 0.721 ± 0.033
FFPSPPPVLSPP | 0.747 ± 0.021
IPPLPSSIPRSF | 0.673 ± 0.022
RTDKETIKKIVE | 0.72 ± 0.014
WLWYLSTRHSKL | 0.7871 ± 0.0037
FQAERTGVTRAR | 0.666 ± 0.0078
SLDFTERHALAC | 0.709 ± 0.031
GRVRAKTETSNS | 0.669 ± 0.028
CLGVCAFSFCCN | 0.624 ± 0.012
PLTPSPRPPPPS | 0.615 ± 0.15
PPPRSPRSLPPL | 0.676 ± 0.017
PFPRPWRPLPTS | 0.7 ± 0.044
PLSPSPPPASLL | 0.702 ± 0.018
RIRGPECDLWFR | 0.707 ± 0.019
RFGHLLRFSWLL | 0.6477 ± 0.0057
LLAFLPPPPCPP | 0.709 ± 0.036
GSVGDASYAAVW | 0.819 ± 0.034
FFSRFCYGFGRM | 0.723 ± 0.066
EENGAGVSVGKL | 0.653 ± 0.0085
LIRFFSSSRPGS | 0.671 ± 0.15
PPLPPPSVPPPC | 0.716 ± 0.012
DWYLVGGRVFWV | 0.721 ± 0.015
LGSFLPLLPSPP | 0.674 ± 0.041

Sequence | protein stability index
PPPPRHPAAAPP | 0.7668 ± 0.0075
LPSLPPRTSPPS | 0.761 ± 0.027
APSPLHFPPPPT | 0.67 ± 0.0048
GPFRGRCFPFCI | 0.667 ± 0.037
GCPGGGRPGPRA | 0.7052 ± 0.0064
KIKKLKKRNKSY | 0.612 ± 0.023
AVARYPPHCSHN | 0.768 ± 0.13
SSRVLFRVSVLR | 0.646 ± 0.09
LYTTLCLRSPPH | 0.671 ± 0.026
GRCRALVARGGH | 0.76 ± 0.2
GKKRFENKKEKY | 0.762 ± 0.12
GRQTEENRKRRV | 0.7 ± 0.037
YGVRGFKGYYGG | 0.735 ± 0.0087
LFPPPPPSPRCL | 0.637 ± 0.055
SVVSSDVGGGRI | 0.5391 ± 0.0047
PPLPPSLPGSSL | 0.642 ± 0.053
CSSLPPCPYSLP | 0.654 ± 0.12
FYVCVIQNMYML | 0.579 ± 0.043
WKSSRSRCIHGE | 0.707 ± 0.026
PGALLPALPPPP | 0.71 ± 0.016
YPGSCFLDTGIW | 0.6666 ± 0.0062
PPVPSLFPPPPH | 0.674 ± 0.038
IACSVWYCCMVI | 0.526 ± 0.014
SVYGIASRAQLL | 0.64 ± 0.11
EGKKKKKGNRPK | 0.676 ± 0.081
GSYVPPVVLLYK | 0.647 ± 0.0095

Sequence | protein stability index
LFYFFGKRPAHL | 0.781 ± 0.045
RHHRACLNTRLG | 0.671 ± 0.065
WGRARCAVGVSG | 0.629 ± 0.0092
GVDAGGVFSRLC | 0.639 ± 0.018
VFPYGVSRGALL | 0.66 ± 0.011
RLSDFFSPPLLP | 0.717 ± 0.047
GGRKKEDEEEEA | 0.651 ± 0.078
VIFFLPWYTPHP | 0.6919 ± 0.0023
WRRGMMGGLAIW | 0.698 ± 0.012
CSEDMVGSIVVV | 0.651 ± 0.041
GLRSDIGQVTHP | 0.635 ± 0.066
INARCNRTIVRP | 0.646 ± 0.021
PLRPSSPLPPPL | 0.71 ± 0.021
CRGGPLGYGCGS | 0.827 ± 0.17
VRCCFGGRGGRA | 0.637 ± 0.035
SLSLPSSVIVGS | 0.624 ± 0.089
SSHPMNQVIKDR | 0.659 ± 0.13
VWLLSNGFLAVD | 0.706 ± 0.049
RWVWRNRSGGGE | 0.636 ± 0.043
KRKREKKLKKYK | 0.634 ± 0.037
GGGARCGWGGRM | 0.7 ± 0.011
VGAWGLMLASVV | 0.5698 ± 0.0055
WGRGGSGGSWGA | 0.688 ± 0.018
ASGASEVGACAG | 0.685 ± 0.033
MKKIGNKLKKEK | 0.657 ± 0.099
IAEVGRFHLVVS | 0.542 ± 0.04

Sequence | protein stability index
SDRSLPGVPVRF | 0.7234 ± 0.0048
SLFSLLVLPPPS | 0.706 ± 0.035
SWPTRRLVVHGL | 0.655 ± 0.0071
KRGIHKLVNEVG | 0.683 ± 0.011
DSFDLPCLFKVP | 0.659 ± 0.078
SILSRPERPLTN | 0.658 ± 0.044
PPPLPLLPSSPL | 0.685 ± 0.013
WPSHVTLPYGLV | 0.6545 ± 0.0057
WYGSYPLTLESY | 0.613 ± 0.013
LKYETGTILRMT | 0.563 ± 0.013
CKCRRYYTLNGG | 0.656 ± 0.025
KNKREKKKENTK | 0.682 ± 0.0078
DVRSGRAVVGGW | 0.63 ± 0.051
HSSDTAFSPLPP | 0.6449 ± 0.0024
FCGFLVLGSFPV | 0.664 ± 0.072
HRKPHRSKTPIH | 0.693 ± 0.032
SSPPRPLPPHHT | 0.705 ± 0.059
SSPSYVPVSYSQ | 0.708 ± 0.066
KTKNTQRKTEEN | 0.653 ± 0.047
GLSEPWVFFLRC | 0.64 ± 0.012
EEMEKRNREKEL | 0.691 ± 0.094
SSPAPPPLLLPS | 0.7047 ± 0.00088
TSGDFLPSHSFL | 0.702 ± 0.074
